According to PMC3411732, “Binding of the Heterogeneous Ribonucleoprotein K (hnRNP K) to the Epstein-Barr Virus Nuclear Antigen 2 (EBNA2) Enhances Viral LMP2A Expression” (PLoS ONE, 2012):

Biological target: T1, EBNA2-wt, transiently expressed in HEK 293-T cells (Epstein-Barr virus, UniProt P12978 1-487, arginines of the RG-repeat (aa 339–354) symmetrically or asymmetrically di-methylated (SDMA or ADMA))
T1 sequence (looked up): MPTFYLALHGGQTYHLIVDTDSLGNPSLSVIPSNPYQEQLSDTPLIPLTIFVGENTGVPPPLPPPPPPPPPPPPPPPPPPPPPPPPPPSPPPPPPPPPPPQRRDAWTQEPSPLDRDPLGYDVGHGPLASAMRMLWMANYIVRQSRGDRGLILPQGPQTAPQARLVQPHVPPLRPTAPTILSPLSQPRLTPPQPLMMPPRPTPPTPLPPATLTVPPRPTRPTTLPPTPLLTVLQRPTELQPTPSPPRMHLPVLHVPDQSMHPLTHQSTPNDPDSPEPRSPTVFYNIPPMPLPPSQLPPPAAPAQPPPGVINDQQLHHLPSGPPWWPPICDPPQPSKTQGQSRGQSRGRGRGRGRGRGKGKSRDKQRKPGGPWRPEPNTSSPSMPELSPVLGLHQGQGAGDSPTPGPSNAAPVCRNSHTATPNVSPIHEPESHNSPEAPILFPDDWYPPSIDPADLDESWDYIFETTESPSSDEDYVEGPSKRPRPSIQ
Experiment: cell-based or functional assay

B1: GFP-hnRNP K (wild type), expressed in 293T cells (natural protein)
chain: not shown
In the case of B1, the “LMP2A promoter luciferase reporter in DG75 cells; co-expression of hnRNP K-wt (pSG5-HA-hnRNP K) with EBNA2-wt (pSG5-EBNA2)” value is reported as at most 3 fold.
